Test results: PMC6033355

How the values were obtained:
[1] = biological target: HD_(N-TIMP2,V3) bi-specific heterodimer (N-TIMP2 fused by a linker to V3, the engineered soluble extracellular domain of the IL-17A receptor, with human IgG1 Fc and 6xHis); assay: BLI; Octet Red; HD_(N-TIMP2,V3) or V3 loaded on Protein A sensors (10 ug/ml, 300 s); IL-17A or MMP-9CAT in solution at 50, 100, 200 nM; 300 s association, 1800-2500 s dissociation; 30 C; PBS, 1% BSA, 0.05% Tween; 1:1 binding model
[2] = biological target: V3, soluble IL-17RA (extracellular domain of the IL-17A receptor with point mutations that increase affinity for IL-17A); assay: as above
[3] = biological target: MMP-9 catalytic domain (Homo sapiens) (UniProt P14780); conditions: cited from earlier work
Chain of MMP-9 catalytic domain (Homo sapiens) (P14780 107-443): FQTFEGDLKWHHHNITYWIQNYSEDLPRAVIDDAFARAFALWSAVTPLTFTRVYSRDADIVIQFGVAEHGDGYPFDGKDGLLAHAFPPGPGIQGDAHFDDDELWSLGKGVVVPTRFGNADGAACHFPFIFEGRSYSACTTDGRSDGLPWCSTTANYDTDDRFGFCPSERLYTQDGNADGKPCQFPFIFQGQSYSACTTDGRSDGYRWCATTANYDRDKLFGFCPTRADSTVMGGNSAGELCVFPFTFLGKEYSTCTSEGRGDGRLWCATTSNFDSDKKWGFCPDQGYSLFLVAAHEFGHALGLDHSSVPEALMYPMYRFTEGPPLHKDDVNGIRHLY

Chain of IL-17A (interleukin-17A) (Q16552 24-155): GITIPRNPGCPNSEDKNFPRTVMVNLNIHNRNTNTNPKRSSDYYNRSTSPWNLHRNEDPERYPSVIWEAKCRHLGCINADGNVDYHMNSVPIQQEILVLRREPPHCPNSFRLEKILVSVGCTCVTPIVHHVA
Chain of N-TIMP2 N-terminal domain (P16035 27-153): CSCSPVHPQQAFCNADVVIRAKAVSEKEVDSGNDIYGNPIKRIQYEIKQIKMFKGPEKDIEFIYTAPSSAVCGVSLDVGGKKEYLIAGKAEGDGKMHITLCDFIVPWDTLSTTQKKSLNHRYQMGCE

Substance | Kd [1] [nM] | Kd [2] [nM] | Ki [3] [nM]
IL-17A (interleukin-17A) (from UniProt Q16552 24-155) (ligand) | 0.048 | 0.122 | –
N-TIMP2 N-terminal domain (from UniProt P16035) | – | – | 0.1
